# Assay results reported in paper PMC3308923 (2012).
# B1: Ank^GAG1D4 (designed binder)
# chain: DLGKKLLEAARAGQDDEVRLLLEHGADVNARDSIGSTPLHLAAYYGHLEIVRLLLEHGADVNARDSTGTTPLHYAARLGHLEIVRLLLEHGADVNARDAMGWTPLHLAAKKGHLEIVRLLLKHGADVNANDHFGKTAFDISIDNGNEDLAEILQSFNHHHHHH
# Biological target: H6MA-CA, His-tagged matrix-capsid (MAp17-CAp24) domains of the HIV-1 Gag precursor (HIV-1 (pNL4-3))
# Assay: ITC
binder,measurement,value
B1,Kd,1090 nM
